Experimental data as given in patent publication US20250340660A1 (published 2025).
Each block holds one binder with its values, some of them ahead of it.

Assays:
[1] = target: T1, human CD30L expressed on B16 cells (human, UniProt P32971 1-234); assay: cell-based or functional assay
T1 sequence (looked up): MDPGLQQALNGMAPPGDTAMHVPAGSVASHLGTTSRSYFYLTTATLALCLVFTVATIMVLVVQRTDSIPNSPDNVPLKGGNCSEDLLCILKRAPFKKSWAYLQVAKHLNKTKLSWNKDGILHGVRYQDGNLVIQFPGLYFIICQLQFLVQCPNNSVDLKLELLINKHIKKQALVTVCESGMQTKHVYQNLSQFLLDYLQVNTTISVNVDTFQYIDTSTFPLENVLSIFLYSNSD

[2] = target: T2, cynomolgus CD30L expressed on HEK293 cells (cynomolgus, UniProt A0A7N9CVX7 1-234); assay: cell-based or functional assay
T2 sequence: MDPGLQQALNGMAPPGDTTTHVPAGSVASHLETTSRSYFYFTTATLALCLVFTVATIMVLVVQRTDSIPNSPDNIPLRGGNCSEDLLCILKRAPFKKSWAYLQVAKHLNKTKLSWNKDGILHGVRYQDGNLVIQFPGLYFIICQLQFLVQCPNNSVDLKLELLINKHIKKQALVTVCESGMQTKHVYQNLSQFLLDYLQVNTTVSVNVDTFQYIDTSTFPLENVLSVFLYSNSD

[3] = target: T3, cynomolgus CD30L expressed on cells (cynomolgus, UniProt A0A7N9CVX7 1-234); assay: flow cytometry, hybridoma supernatant 1/50 dil, cells expressing cynomolgus CD30L
T3 construct: whole, on cells; also called cyCD30L; cyno CD30L
T3 sequence: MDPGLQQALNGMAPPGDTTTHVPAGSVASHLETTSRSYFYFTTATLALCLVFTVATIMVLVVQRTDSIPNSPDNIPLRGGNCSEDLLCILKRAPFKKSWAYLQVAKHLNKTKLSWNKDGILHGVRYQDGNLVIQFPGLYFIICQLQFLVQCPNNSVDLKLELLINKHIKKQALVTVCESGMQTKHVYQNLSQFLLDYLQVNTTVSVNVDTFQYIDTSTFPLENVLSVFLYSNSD

[4] = target: T4, recombinant human CD30L protein (human, UniProt P32971 63-234, limits assumed); assay: ELISA, hybridoma supernatant 1/500 dil, recombinant human CD30L
T4 construct: also called huCD30L; rhCD30L
T4 sequence (looked up): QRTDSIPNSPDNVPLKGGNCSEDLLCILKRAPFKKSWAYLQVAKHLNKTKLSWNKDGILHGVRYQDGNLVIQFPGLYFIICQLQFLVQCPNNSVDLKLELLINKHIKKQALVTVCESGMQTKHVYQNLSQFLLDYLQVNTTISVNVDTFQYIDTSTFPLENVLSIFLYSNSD

[5] = target: T4, recombinant human CD30L protein; assay: ELISA, hybridoma supernatant 1/50 dil, recombinant human CD30L
[6] = target: T5, human CD30L expressed on cells (human, UniProt P32971 1-234); assay: flow cytometry, hybridoma supernatant 1/50 dil, cells expressing human CD30L
T5 construct: also called huCD30L; TNFSF8
T5 sequence: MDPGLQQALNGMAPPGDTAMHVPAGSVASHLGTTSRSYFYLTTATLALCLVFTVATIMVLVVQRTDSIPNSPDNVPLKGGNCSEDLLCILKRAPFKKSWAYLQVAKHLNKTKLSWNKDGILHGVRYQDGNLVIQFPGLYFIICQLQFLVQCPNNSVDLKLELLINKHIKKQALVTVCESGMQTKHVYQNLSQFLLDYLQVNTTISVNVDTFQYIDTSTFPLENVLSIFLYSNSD

[7] = target: T4, recombinant human CD30L protein; assay: ELISA, hybridoma supernatant 1/5000 dil, recombinant human CD30L
[8] = target: T6, human CD30L (recombinant protein) (human, UniProt P32971 63-234); assay: Carterra, human CD30L
T6 construct: also called rhCD30L; TNFSF8
T6 sequence: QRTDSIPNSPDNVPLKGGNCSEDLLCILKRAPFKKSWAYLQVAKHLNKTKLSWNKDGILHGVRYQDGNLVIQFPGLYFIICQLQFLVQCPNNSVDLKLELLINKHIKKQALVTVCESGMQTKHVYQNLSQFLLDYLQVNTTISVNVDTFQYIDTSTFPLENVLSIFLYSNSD

recombinant human CD30L = target: T7, recombinant human CD30L (human, UniProt P32971 63-234, limits assumed); assay: biosensor: antibody captured, CD30L bound, competitor rhCD30 added; signal of CD30 association (over 0.15 = non-blocking)
T7 construct: also called rhCD30L; TNFSF8
T7 sequence (looked up): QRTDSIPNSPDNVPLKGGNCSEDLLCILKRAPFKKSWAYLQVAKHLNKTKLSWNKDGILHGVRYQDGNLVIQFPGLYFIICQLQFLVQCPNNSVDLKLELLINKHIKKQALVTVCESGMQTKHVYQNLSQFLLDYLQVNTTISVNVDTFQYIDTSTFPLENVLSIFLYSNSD
Experimental: Briefly, individual anti-human biosensors were loaded with purified IgG (normalized to 10 μg/mL) and a baseline was measured for each biosensor. Biosensors were saturated with biotin and with polyclonal huIgG and a baseline was measured. […] Biosensors were moved to buffer wells to measure the dissociation rate.

Inhibition of IL-8 release in a dual cell assay (B16-huCD30L cells + K299 cells) IC50 [1]: 1.43 nM
Inhibition of IL-8 release in a dual cell assay (HEK293-cyCD30L cells + K299 cells) IC50 [2]: 0.39 nM
B1: anti-CD30L antibody clone 1 (antibody, V domains shown)
VH: QVQLQESGPGLVKPSETLSLTCTVSGGSISGYYWSWIRQPPVKGLEWIGYIFYSGYTKYNPSLKSRVTISVDTSKNQFSLKLSSVTAADTAVYYCARDRWDFDYWGQGALVTVSS
VL: AIQMTQSPSYLSASVGDRVTIACRASQGIRNNLGWYQQKPGKAPKLLIYAESSLQSGVPSRFSGSGSGTDFTLTISSLQPEDFATYYCLQDFNYPYTFGQGTKLEIK

Cell Binding (MFI) [3]: 77.3 MFI
Elisa Binding (OD) [4]: 3.02 OD
Elisa Binding (OD) [5]: 3.59 OD
Cell Binding (MFI) [6]: 208 MFI
Elisa Binding (OD) [7]: 1.28 OD
B2: anti-CD30L antibody Clone 1 (parental, hybridoma) (antibody, V domains shown)
VH: QVQLQESGPGLVKPSETLSLTCTVSGGSISGYYWSWIRQPPVKGLEWIGYIFYSGYTKYNPSLKSRVTISVDTSKNQFSLKLSSVTAADTAVYYCARDRWDFDYWGQGALVTVSS
VL: AIQMTQSPSYLSASVGDRVTIACRASQGIRNNLGWYQQKPGKAPKLLIYAESSLQSGVPSRFSGSGSGTDFTLTISSLQPEDFATYYCLQDFNYPYTFGQGTKLEIK
notes: Tested as diluted hybridoma supernatant from mice with a humanized immunoglobulin locus

Inhibition of IL-8 release in a dual cell assay (B16-huCD30L cells + K299 cells) IC50 [1]: 1.29 nM
Inhibition of IL-8 release in a dual cell assay (HEK293-cyCD30L cells + K299 cells) IC50 [2]: 0.43 nM
B3: anti-CD30L antibody clone 1 germlined (antibody, V domains shown)
VH: QVQLQESGPGLVKPSETLSLTCTVSGGSISGYYWSWIRQPPGKGLEWIGYIFYSGYTKYNPSLKSRVTISVDTSKNQFSLKLSSVTAADTAVYYCARDRWDFDYWGQGTLVTVSS
VL: AIQMTQSPSSLSASVGDRVTITCRASQGIRNNLGWYQQKPGKAPKLLIYAESSLQSGVPSRFSGSGSGTDFTLTISSLQPEDFATYYCLQDFNYPYTFGQGTKLEIK

Cell Binding (MFI) [3]: 72.4 MFI
Elisa Binding (OD) [4]: 2.54 OD
Elisa Binding (OD) [5]: 3.5 OD
Cell Binding (MFI) [6]: 153 MFI
Elisa Binding (OD) [7]: 0.662 OD
B4: anti-CD30L antibody Clone 3 (parental, hybridoma) (antibody, V domains shown)
VH: QVQLQESGPGLVKPSETLSLTCTVSGGSISGYYWSWIRQPPVKGLEWIGYIFYSGYTKYNPSLKSRVTISVDTSKNQFSLKLSSVTAADTAVYYCARDRWDFDYWGQGALVTVSS
VL: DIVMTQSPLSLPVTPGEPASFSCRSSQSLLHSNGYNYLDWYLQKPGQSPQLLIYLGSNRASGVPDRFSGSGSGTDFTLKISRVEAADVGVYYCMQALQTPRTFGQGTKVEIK
notes: as for B2

Kd [8]: 1.85 nM
B5: anti-CD30L antibody clone 63 (antibody, V domains shown)
VH: EVQLVESGGGLVQPGGSLRLSCAASGFMFSSYSMNWVRQAPGKGLEWVSYISSSSSTIYDADSVKGRFTISRDDAKNSLYLQMNSLRDEDTAVYYCTREAYPGYYYNYMDVWGKGTTVTVSS
VL: DIQMTQSPSSLSASVGDRVTITCRASQSISSRLAWYQQKPGKAPNLLIYKASNLESGVPSRFSGSGSGTEFTLTISSLQPDDFATYYCQQYNSYSRTFGQGTKVEIK
notes: Purified recombinant antibody

rhCD30L:rhCD30 Blocking (recombinant human CD30L): 0.0592 relative units
B6: anti-CD30L antibody clone 63 (antibody, V domains shown)
VH: EVQLVESGGGLVQPGGSLRLSCAASGFMFSSYSMNWVRQAPGKGLEWVSYISSSSSTIYDADSVKGRFTISRDDAKNSLYLQMNSLRDEDTAVYYCTREAYPGYYYNYMDVWGKGTTVTVSS
VL: DIQMTQSPSSLSASVGDRVTITCRASQSISSRLAWYQQKPGKAPNLLIYKASNLESGVPSRFSGSGSGTEFTLTISSLQPDDFATYYCQQYNSYSRTFGQGTKVEIK
notes: purified recombinant IgG, humanized mouse strain #1; also called Clone ID 63

Kd [8]: 0.559 nM
B7: anti-CD30L antibody clone 82 (antibody, V domains shown)
VH: EVQLVESGGGLVQPGGSLRLSCAVSGITFSNAWMSWVRQAPGKGLEWVGRIKSKTYGGTTDYAAPVKGRFIISRDDSKDTLYLQMNSLKTEDTAIYYCTTDPWNYVNYNYFMDVWGKGTTVTVSS
VL: DIQMTQSPSSLSASVGDRVTITCRASQDIRNYLAWYQQKPGKITHLLVYAASTLQSGVPSRFSGSGSGTDFTLTINSLQPEDVATYYCQNYFSVPLTFGGGTKVEIK
notes: Purified recombinant antibody

Cell Binding (MFI) [3]: 67.8 MFI
Elisa Binding (OD) [4]: 2.65 OD
Elisa Binding (OD) [5]: 3.08 OD
Cell Binding (MFI) [6]: 151 MFI
Elisa Binding (OD) [7]: 0.68 OD
B8: anti-CD30L antibody Clone 4 (parental, hybridoma) (antibody, V domains shown)
VH: QVQLVESGGGVVQPGRSLRLSCAASGFPFSSYGMHWVRQAPGKGLEWVTFIWFDGNNKDYADSVKGRFSVSRDNSKNTLYLQMNSLRADDTAVYYCARNGVYYGSGAYVDYWGQGTLVTVSS
VL: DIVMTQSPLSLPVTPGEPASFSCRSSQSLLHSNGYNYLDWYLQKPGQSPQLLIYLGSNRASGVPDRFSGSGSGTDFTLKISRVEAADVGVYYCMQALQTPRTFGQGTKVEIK
notes: as for B2

Kd [8]: 1.57 nM
B9: anti-CD30L antibody clone 64 (antibody, V domains shown)
VH: EVQLVESGGGLVQPGGSLRLSCAASGFTFSNYAMTWVRQAPGKGLEWVSAISGFGGSTYYADSVKGRFTISRDNSKNTLYLQMNSLRAEDTAVYYCAKDHDYYAFDYWGQGTLVTVSS
VL: not shown
notes: Purified recombinant antibody

Kd [8]: 1.52 nM
B10: anti-CD30L antibody clone 65 (antibody, V domains shown)
VH: EVQLVESGGGLVQPGGSLKLSCAASGFTFSNYAMTWVRQAPGKGLEWVSAISGYGGSTYYAASVKGRFTISRDNSKNTLFLQMNSLRAEDTAVYYCAKDHDYYAFDYWGQGTLVPVSS
VL: not shown
notes: Purified recombinant antibody

Inhibition of IL-8 release in a dual cell assay (B16-huCD30L cells + K299 cells) IC50 [1]: 1.61 nM
Inhibition of IL-8 release in a dual cell assay (HEK293-cyCD30L cells + K299 cells) IC50 [2]: 0.79 nM
B11: anti-CD30L Reference 1 antibody (antibody, human IgG1, lambda, V domains shown)
VH: QVQLQESGPGLVKPSETLSLTCTVSGGSISSYIWSWIRQPAGKGLEWIGRIYASGNTNYNPSLKSRVTISVDTSKNQFSLKLSSMTAADTAVYYCARDYRVAGTYYYYYGLDVWGQGTTVTVSS
VL: QSALTQPASVSGSPGQSITISCTGTSSDVGVYDYVSWYQQHPGKAPKLMIYEVSNRPSGVSNRFSGSKSGNTASLTISGLQTEDEADYYCSSYTSRSTWVFGGGTKLTVLG

Inhibition of IL-8 release in a dual cell assay (B16-huCD30L cells + K299 cells) IC50 [1]: 0.81 nM
Inhibition of IL-8 release in a dual cell assay (HEK293-cyCD30L cells + K299 cells) IC50 [2]: 0.31 nM
B12: anti-CD30L antibody clone 2 (antibody, V domains shown)
VH: EVQLVESGGGLVQPGRSLRLSCAASGFNFDDYAMHWVRQAPGKGLEWVSGISWRSGNIGYAGSVKGRFTISRDNAKNSLYLQMNSLRPEDSALYYCAKDKGIGFNWNYEGFDYWGQGTLVTVSS
VL: DIQMTQSPSSLSASVGDRVTITCRASQGISNHLAWFQQKPGKAPKSLIYAASSLQSGVPSKFSGSGSGTDFTLTISSLQPEDFATYYCQQYVTYPLTFGGGTKVEIK

Kd [8]: 3.54 nM
B13: anti-CD30L antibody clone 80 (antibody, V domains shown)
VH: EVQLVESGGGLVQPGGSLRLSCEVSGFTFSSYDMHWVRQVTGTGLEWVSSIGIGGDTYYPGSVKGRFTISRENAKNSLYLQMNSLRGGDTGVYYCARGEWDLLWYFMDVWGKGTTVTVSS
VL: DIQMTQSPSSLSASIGDRVTITCRASQGISSWLAWYQQKPGKAPKLLIYAASSLQSGVPSRFSGSGSGTDFTLTISSLQPEDFATYYCQQANSFPLTFGGGTKVEIK
notes: Purified recombinant antibody

Cell Binding (MFI) [3]: 57.6 MFI
Elisa Binding (OD) [4]: 1.71 OD
Elisa Binding (OD) [5]: 2.15 OD
Cell Binding (MFI) [6]: 280 MFI
Elisa Binding (OD) [7]: 0.565 OD
B14: anti-CD30L antibody Clone 2 (parental, hybridoma) (antibody, V domains shown)
VH: EVQLVESGGGLVQPGRSLRLSCAASGFNFDDYAMHWVRQAPGKGLEWVSGISWRSGNIGYAGSVKGRFTISRDNAKNSLYLQMNSLRPEDSALYYCAKDKGIGFNWNYEGFDYWGQGTLVTVSS
VL: DIQMTQSPSSLSASVGDRVTITCRASQGISNHLAWFQQKPGKAPKSLIYAASSLQSGVPSKFSGSGSGTDFTLTISSLQPEDFATYYCQQYVTYPLTFGGGTKVEIK
notes: as for B2

Inhibition of IL-8 release in a dual cell assay (B16-huCD30L cells + K299 cells) IC50 [1]: 0.89 nM
Inhibition of IL-8 release in a dual cell assay (HEK293-cyCD30L cells + K299 cells) IC50 [2]: 0.41 nM
B15: anti-CD30L antibody clone 2 germlined (antibody, V domains shown)
VH: EVQLVESGGGLVQPGRSLRLSCAASGFNFDDYAMHWVRQAPGKGLEWVSGISWRSGNIGYADSVKGRFTISRDNAKNSLYLQMNSLRAEDTALYYCAKDKGIGFNWNYEGFDYWGQGTLVTVSS
VL: DIQMTQSPSSLSASVGDRVTITCRASQGISNHLAWFQQKPGKAPKSLIYAASSLQSGVPSRFSGSGSGTDFTLTISSLQPEDFATYYCQQYVTYPLTFGGGTKVEIK
